Test [1] deals with T1, IRF3 (endogenous, 293T cells) (human (endogenous in 293T)), Q14653.
T1 chain: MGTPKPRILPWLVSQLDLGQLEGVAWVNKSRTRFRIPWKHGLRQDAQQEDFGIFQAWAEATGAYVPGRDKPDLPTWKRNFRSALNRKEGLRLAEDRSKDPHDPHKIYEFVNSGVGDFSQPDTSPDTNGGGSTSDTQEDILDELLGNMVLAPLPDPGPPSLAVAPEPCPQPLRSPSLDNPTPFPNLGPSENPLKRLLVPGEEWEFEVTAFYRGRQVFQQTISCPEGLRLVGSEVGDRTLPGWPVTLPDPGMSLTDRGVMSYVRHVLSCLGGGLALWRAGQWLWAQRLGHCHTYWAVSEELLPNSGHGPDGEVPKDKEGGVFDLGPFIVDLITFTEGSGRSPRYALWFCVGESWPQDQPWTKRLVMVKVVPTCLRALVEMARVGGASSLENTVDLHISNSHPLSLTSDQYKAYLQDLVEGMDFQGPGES
Nature of the test: native gel or EMSA. To be noted: remark: other sources report otherwise. A general note: In EMSA bound probe runs differently from free probe, usually more slowly.

In test [2] the target is T2, IRF3 (endogenous, MEFs) (mouse (endogenous in MEFs)), P70671.
T2 chain: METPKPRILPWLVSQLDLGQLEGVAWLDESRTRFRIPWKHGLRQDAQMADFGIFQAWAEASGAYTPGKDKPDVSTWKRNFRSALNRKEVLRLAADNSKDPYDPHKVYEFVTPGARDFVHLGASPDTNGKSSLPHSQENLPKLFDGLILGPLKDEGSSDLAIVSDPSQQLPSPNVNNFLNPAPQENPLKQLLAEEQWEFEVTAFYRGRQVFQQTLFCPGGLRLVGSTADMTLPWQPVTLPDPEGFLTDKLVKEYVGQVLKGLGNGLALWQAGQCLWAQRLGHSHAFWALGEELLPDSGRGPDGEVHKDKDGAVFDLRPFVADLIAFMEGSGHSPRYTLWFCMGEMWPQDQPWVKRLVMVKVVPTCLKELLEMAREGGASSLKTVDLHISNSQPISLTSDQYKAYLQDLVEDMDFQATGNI
In words: native gel or EMSA. As to conditions: remark: other sources report otherwise.

B1: IRF3 (endogenous, 293T cells), Q14653 1-427 (natural protein)
chain: MGTPKPRILPWLVSQLDLGQLEGVAWVNKSRTRFRIPWKHGLRQDAQQEDFGIFQAWAEATGAYVPGRDKPDLPTWKRNFRSALNRKEGLRLAEDRSKDPHDPHKIYEFVNSGVGDFSQPDTSPDTNGGGSTSDTQEDILDELLGNMVLAPLPDPGPPSLAVAPEPCPQPLRSPSLDNPTPFPNLGPSENPLKRLLVPGEEWEFEVTAFYRGRQVFQQTISCPEGLRLVGSEVGDRTLPGWPVTLPDPGMSLTDRGVMSYVRHVLSCLGGGLALWRAGQWLWAQRLGHCHTYWAVSEELLPNSGHGPDGEVPKDKEGGVFDLGPFIVDLITFTEGSGRSPRYALWFCVGESWPQDQPWTKRLVMVKVVPTCLRALVEMARVGGASSLENTVDLHISNSHPLSLTSDQYKAYLQDLVEGMDFQGPGES
As usually defined, the stoichiometry N is a count of units in the complex or per binding partner. In test [1], B1 displayed a stoichiometry N of 2.

B2: IRF3 (endogenous, MEFs), P70671 1-419 (natural protein)
chain: METPKPRILPWLVSQLDLGQLEGVAWLDESRTRFRIPWKHGLRQDAQMADFGIFQAWAEASGAYTPGKDKPDVSTWKRNFRSALNRKEVLRLAADNSKDPYDPHKVYEFVTPGARDFVHLGASPDTNGKSSLPHSQENLPKLFDGLILGPLKDEGSSDLAIVSDPSQQLPSPNVNNFLNPAPQENPLKQLLAEEQWEFEVTAFYRGRQVFQQTLFCPGGLRLVGSTADMTLPWQPVTLPDPEGFLTDKLVKEYVGQVLKGLGNGLALWQAGQCLWAQRLGHSHAFWALGEELLPDSGRGPDGEVHKDKDGAVFDLRPFVADLIAFMEGSGHSPRYTLWFCMGEMWPQDQPWVKRLVMVKVVPTCLKELLEMAREGGASSLKTVDLHISNSQPISLTSDQYKAYLQDLVEDMDFQATGNI
B2 returned a stoichiometry N in test [2] of 2.

For the origin of these results see article PMC3939855.
